Experimental findings from the Human Domainome abundance scans (Beltran et al. 2025) are described below.

The chains are these.
B1: Storkhead-box protein 2, residues 64 to 141; numbered along this chain, Q9P2F5 (parent)
chain: SPISQSQFIPLGEILCLAISAMNSARKPVTQEALMEHLTTCFPGVPTPSQEILRHTLNTLVRERKIYPTPDGYFIVTP

± gives the uncertainty stated by the source.

The variants in this series derive from B1. Put plainly: abundance fitness (aPCA) (normalised: wild type 0, dead -1); higher = more abundant; growth selection in yeast, the domain comes from the species named. The following applies: Homo sapiens.
Turning to SPISQEQFIPLGEILCLAISAMNSARKPVTQEALMEHLTTCFPGVPTPSQEILRHTLNTLVRERKIYPTPDGYFIVTP [S6E], the abundance fitness is -0.046 ± 0.061.

As for SPISQFQFIPLGEILCLAISAMNSARKPVTQEALMEHLTTCFPGVPTPSQEILRHTLNTLVRERKIYPTPDGYFIVTP [S6F], the abundance fitness was -0.091 ± 0.079.

Regarding SPISQDQFIPLGEILCLAISAMNSARKPVTQEALMEHLTTCFPGVPTPSQEILRHTLNTLVRERKIYPTPDGYFIVTP [S6D], the abundance fitness was 0.027 ± 0.069.

SPISASQFIPLGEILCLAISAMNSARKPVTQEALMEHLTTCFPGVPTPSQEILRHTLNTLVRERKIYPTPDGYFIVTP [Q5A]: the abundance fitness was determined as 0.037 ± 0.041.

Regarding SPISISQFIPLGEILCLAISAMNSARKPVTQEALMEHLTTCFPGVPTPSQEILRHTLNTLVRERKIYPTPDGYFIVTP [Q5I], the abundance fitness was -0.052 ± 0.078.

As to SPISYSQFIPLGEILCLAISAMNSARKPVTQEALMEHLTTCFPGVPTPSQEILRHTLNTLVRERKIYPTPDGYFIVTP [Q5Y], the abundance fitness was -0.055 ± 0.083.

SPISRSQFIPLGEILCLAISAMNSARKPVTQEALMEHLTTCFPGVPTPSQEILRHTLNTLVRERKIYPTPDGYFIVTP [Q5R]: the abundance fitness was -0.068 ± 0.037.

As to SPISGSQFIPLGEILCLAISAMNSARKPVTQEALMEHLTTCFPGVPTPSQEILRHTLNTLVRERKIYPTPDGYFIVTP [Q5G], the abundance fitness was -0.12 ± 0.037.

As for SPISFSQFIPLGEILCLAISAMNSARKPVTQEALMEHLTTCFPGVPTPSQEILRHTLNTLVRERKIYPTPDGYFIVTP [Q5F], the abundance fitness is -0.109 ± 0.074.

Consider SPISESQFIPLGEILCLAISAMNSARKPVTQEALMEHLTTCFPGVPTPSQEILRHTLNTLVRERKIYPTPDGYFIVTP [Q5E], for which the abundance fitness is -0.015 ± 0.088.

As to SPISKSQFIPLGEILCLAISAMNSARKPVTQEALMEHLTTCFPGVPTPSQEILRHTLNTLVRERKIYPTPDGYFIVTP [Q5K], the abundance fitness was determined as 0.012 ± 0.09.

On to SPISPSQFIPLGEILCLAISAMNSARKPVTQEALMEHLTTCFPGVPTPSQEILRHTLNTLVRERKIYPTPDGYFIVTP [Q5P], for which the abundance fitness was -0.125 ± 0.055.

Regarding SPISDSQFIPLGEILCLAISAMNSARKPVTQEALMEHLTTCFPGVPTPSQEILRHTLNTLVRERKIYPTPDGYFIVTP [Q5D], the abundance fitness is -0.021 ± 0.079.

As to SPISCSQFIPLGEILCLAISAMNSARKPVTQEALMEHLTTCFPGVPTPSQEILRHTLNTLVRERKIYPTPDGYFIVTP [Q5C], the abundance fitness was -0.025 ± 0.063.

Take SPISTSQFIPLGEILCLAISAMNSARKPVTQEALMEHLTTCFPGVPTPSQEILRHTLNTLVRERKIYPTPDGYFIVTP [Q5T]: the abundance fitness is 0.049 ± 0.055.

For the variant SPISWSQFIPLGEILCLAISAMNSARKPVTQEALMEHLTTCFPGVPTPSQEILRHTLNTLVRERKIYPTPDGYFIVTP [Q5W], the abundance fitness is -0.276 ± 0.051.

Consider SPISHSQFIPLGEILCLAISAMNSARKPVTQEALMEHLTTCFPGVPTPSQEILRHTLNTLVRERKIYPTPDGYFIVTP [Q5H], for which the abundance fitness is -0.099 ± 0.081.

Take SPISSSQFIPLGEILCLAISAMNSARKPVTQEALMEHLTTCFPGVPTPSQEILRHTLNTLVRERKIYPTPDGYFIVTP [Q5S]: the abundance fitness was -0.007 ± 0.035.

Take SPISLSQFIPLGEILCLAISAMNSARKPVTQEALMEHLTTCFPGVPTPSQEILRHTLNTLVRERKIYPTPDGYFIVTP [Q5L]: the abundance fitness was -0.079 ± 0.043.

Take SPQSQSQFIPLGEILCLAISAMNSARKPVTQEALMEHLTTCFPGVPTPSQEILRHTLNTLVRERKIYPTPDGYFIVTP [I3Q]: the abundance fitness was -0.12 ± 0.048.

For SPWSQSQFIPLGEILCLAISAMNSARKPVTQEALMEHLTTCFPGVPTPSQEILRHTLNTLVRERKIYPTPDGYFIVTP [I3W], the abundance fitness was -0.44 ± 0.048.

For the variant SPPSQSQFIPLGEILCLAISAMNSARKPVTQEALMEHLTTCFPGVPTPSQEILRHTLNTLVRERKIYPTPDGYFIVTP [I3P], the abundance fitness is -0.106 ± 0.047.

In the case of SPYSQSQFIPLGEILCLAISAMNSARKPVTQEALMEHLTTCFPGVPTPSQEILRHTLNTLVRERKIYPTPDGYFIVTP [I3Y], the abundance fitness was -0.158 ± 0.088.

With SPHSQSQFIPLGEILCLAISAMNSARKPVTQEALMEHLTTCFPGVPTPSQEILRHTLNTLVRERKIYPTPDGYFIVTP [I3H], the abundance fitness was -0.017 ± 0.062.

SPVSQSQFIPLGEILCLAISAMNSARKPVTQEALMEHLTTCFPGVPTPSQEILRHTLNTLVRERKIYPTPDGYFIVTP [I3V]: the abundance fitness is 0.001 ± 0.034.

In the case of SPFSQSQFIPLGEILCLAISAMNSARKPVTQEALMEHLTTCFPGVPTPSQEILRHTLNTLVRERKIYPTPDGYFIVTP [I3F], the abundance fitness was -0.255 ± 0.084.

On to SPNSQSQFIPLGEILCLAISAMNSARKPVTQEALMEHLTTCFPGVPTPSQEILRHTLNTLVRERKIYPTPDGYFIVTP [I3N], for which the abundance fitness was -0.207 ± 0.063.

As to SPSSQSQFIPLGEILCLAISAMNSARKPVTQEALMEHLTTCFPGVPTPSQEILRHTLNTLVRERKIYPTPDGYFIVTP [I3S], the abundance fitness is 0.004 ± 0.038.

SPESQSQFIPLGEILCLAISAMNSARKPVTQEALMEHLTTCFPGVPTPSQEILRHTLNTLVRERKIYPTPDGYFIVTP [I3E]: the abundance fitness amounted to 0.041 ± 0.06.

Consider SPASQSQFIPLGEILCLAISAMNSARKPVTQEALMEHLTTCFPGVPTPSQEILRHTLNTLVRERKIYPTPDGYFIVTP [I3A], for which the abundance fitness was -0.075 ± 0.039.

For SPRSQSQFIPLGEILCLAISAMNSARKPVTQEALMEHLTTCFPGVPTPSQEILRHTLNTLVRERKIYPTPDGYFIVTP [I3R], the abundance fitness is -0.022 ± 0.035.

Regarding SPTSQSQFIPLGEILCLAISAMNSARKPVTQEALMEHLTTCFPGVPTPSQEILRHTLNTLVRERKIYPTPDGYFIVTP [I3T], the abundance fitness is -0.024 ± 0.072.

Consider SPMSQSQFIPLGEILCLAISAMNSARKPVTQEALMEHLTTCFPGVPTPSQEILRHTLNTLVRERKIYPTPDGYFIVTP [I3M], for which the abundance fitness was -0.047 ± 0.058.

On to SPCSQSQFIPLGEILCLAISAMNSARKPVTQEALMEHLTTCFPGVPTPSQEILRHTLNTLVRERKIYPTPDGYFIVTP [I3C], for which the abundance fitness is -0.16 ± 0.057.

For SPGSQSQFIPLGEILCLAISAMNSARKPVTQEALMEHLTTCFPGVPTPSQEILRHTLNTLVRERKIYPTPDGYFIVTP [I3G], the abundance fitness was -0.046 ± 0.028.
